Data set [1] addresses His6-Rna14 (wild type) (Saccharomyces cerevisiae) (UniProt P25298). Nature of the data set: cross-linking.
Data set [2] has the same target. Nature of the data set: SEC.
For data set [3] the target is unchanged. Nature of the data set: AUC.
Data set [4] has as its target T1, His6-Rna14-ES (R562E/Y563S) (Saccharomyces cerevisiae, UniProt P25298 1-677, R562E | Y563S).
T1 sequence (looked up): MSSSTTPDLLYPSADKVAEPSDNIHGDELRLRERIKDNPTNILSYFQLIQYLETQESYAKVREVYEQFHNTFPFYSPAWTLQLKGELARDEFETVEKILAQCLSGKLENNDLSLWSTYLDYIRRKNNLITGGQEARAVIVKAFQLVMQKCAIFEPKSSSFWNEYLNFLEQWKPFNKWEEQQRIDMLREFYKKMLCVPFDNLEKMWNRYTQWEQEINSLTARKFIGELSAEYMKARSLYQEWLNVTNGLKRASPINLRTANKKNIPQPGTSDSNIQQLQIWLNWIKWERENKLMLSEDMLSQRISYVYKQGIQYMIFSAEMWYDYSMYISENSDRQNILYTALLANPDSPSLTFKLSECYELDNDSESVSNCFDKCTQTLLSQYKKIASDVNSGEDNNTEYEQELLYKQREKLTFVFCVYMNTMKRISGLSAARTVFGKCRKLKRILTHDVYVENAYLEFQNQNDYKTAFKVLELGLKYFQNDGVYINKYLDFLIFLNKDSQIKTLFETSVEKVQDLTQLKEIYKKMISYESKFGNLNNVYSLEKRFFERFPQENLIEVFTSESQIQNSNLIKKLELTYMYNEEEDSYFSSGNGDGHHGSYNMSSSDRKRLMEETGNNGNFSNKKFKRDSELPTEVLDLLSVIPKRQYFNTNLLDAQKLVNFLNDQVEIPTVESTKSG
Nature of the data set: SEC.

The target of data set [5] is T1, His6-Rna14-ES (R562E/Y563S). Nature of the data set: cross-linking.
The data set “SEC” deals with the molecule itself. Nature of the data set: SEC.
The data set “cross-linking” deals with the molecule itself. Nature of the data set: cross-linking.
The data set “AUC” concerns the molecule itself. Nature of the data set: AUC.
Data set [6] concerns the target MBP-tagged Pcf11/Clp1 complex (yeast, UniProt P39081 1-626; Q08685 1-445). Nature of the data set: pull-down.

Consider four molecules from PMC3234886 (Biochemistry, 2011).

Sequence of MBP-tagged Pcf11/Clp1 complex (P39081 whole entry, chain 1 of 2): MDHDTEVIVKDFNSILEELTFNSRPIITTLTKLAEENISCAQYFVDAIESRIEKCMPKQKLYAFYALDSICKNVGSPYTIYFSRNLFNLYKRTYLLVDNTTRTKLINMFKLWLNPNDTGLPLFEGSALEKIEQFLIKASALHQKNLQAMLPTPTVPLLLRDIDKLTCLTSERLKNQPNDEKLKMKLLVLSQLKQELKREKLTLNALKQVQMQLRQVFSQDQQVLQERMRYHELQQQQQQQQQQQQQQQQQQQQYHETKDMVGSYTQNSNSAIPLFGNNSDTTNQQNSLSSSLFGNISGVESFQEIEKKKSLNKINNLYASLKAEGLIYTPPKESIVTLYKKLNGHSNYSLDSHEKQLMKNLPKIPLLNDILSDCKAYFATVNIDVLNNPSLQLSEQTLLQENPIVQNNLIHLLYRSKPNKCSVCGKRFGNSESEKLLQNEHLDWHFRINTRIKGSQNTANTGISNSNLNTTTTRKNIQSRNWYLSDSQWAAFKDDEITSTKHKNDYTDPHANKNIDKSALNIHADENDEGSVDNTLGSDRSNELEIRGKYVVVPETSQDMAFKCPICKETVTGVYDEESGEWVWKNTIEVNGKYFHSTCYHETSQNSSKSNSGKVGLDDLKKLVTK
Sequence of MBP-tagged Pcf11/Clp1 complex (Q08685 whole entry, chain 2 of 2): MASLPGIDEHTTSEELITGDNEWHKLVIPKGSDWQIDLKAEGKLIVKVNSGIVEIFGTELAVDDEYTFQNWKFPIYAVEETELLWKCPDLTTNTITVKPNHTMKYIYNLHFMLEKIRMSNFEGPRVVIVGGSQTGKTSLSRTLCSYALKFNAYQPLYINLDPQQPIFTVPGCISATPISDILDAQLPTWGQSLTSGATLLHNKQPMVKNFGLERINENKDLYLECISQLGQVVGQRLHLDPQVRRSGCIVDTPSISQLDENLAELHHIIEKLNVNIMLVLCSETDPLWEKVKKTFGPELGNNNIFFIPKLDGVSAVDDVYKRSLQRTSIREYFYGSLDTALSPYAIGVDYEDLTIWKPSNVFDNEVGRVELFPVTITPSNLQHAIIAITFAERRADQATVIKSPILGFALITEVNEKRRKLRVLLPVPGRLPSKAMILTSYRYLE

As to “Rna15 (untagged, co-expressed with Rna14) (from UniProt P25299 1-296) (natural protein)”, the stoichiometry N (Rna15 per Rna14 (2:2)) in data set [1] and in data set [3] was 1 throughout. The ratio of Rna14 to Rna15 (intensity of stained bands, SEC peak fractions) in data set [2] was 2.7.

B1: Rna15 (untagged, co-expressed with Rna14) (natural protein, Saccharomyces cerevisiae, UniProt P25299 1-296, looked up)
chain: MNRQSGVNAGVQNNPPSRVVYLGSIPYDQTEEQILDLCSNVGPVINLKMMFDPQTGRSKGYAFIEFRDLESSASAVRNLNGYQLGSRFLKCGYSSNSDISGVSQQQQQQYNNINGNNNNNGNNNNNSNGPDFQNSGNANFLSQKFPELPSGIDVNINMTTPAMMISSELAKKPKEVQLKFLQKFQEWTRAHPEDAVSLLELCPQLSFVTAELLLTNGICKVDDLIPLASRPQEEASATNNNSVNEVVDPAVLNKQKELLKQVLQLNDSQISILPDDERMAIWDLKQKALRGEFGAF
B1: the “ratio of Rna14 to Rna15 (intensity of stained bands, SEC peak fractions)” value in data set [4] came out at 2.5. Moreover, in [5], the “stoichiometry N” value was 1 Rna15 per Rna14-ES (1:1).

B2: His6-Rna14 (wild type) (natural protein, Saccharomyces cerevisiae, UniProt P25298 1-677, looked up)
chain: MSSSTTPDLLYPSADKVAEPSDNIHGDELRLRERIKDNPTNILSYFQLIQYLETQESYAKVREVYEQFHNTFPFYSPAWTLQLKGELARDEFETVEKILAQCLSGKLENNDLSLWSTYLDYIRRKNNLITGGQEARAVIVKAFQLVMQKCAIFEPKSSSFWNEYLNFLEQWKPFNKWEEQQRIDMLREFYKKMLCVPFDNLEKMWNRYTQWEQEINSLTARKFIGELSAEYMKARSLYQEWLNVTNGLKRASPINLRTANKKNIPQPGTSDSNIQQLQIWLNWIKWERENKLMLSEDMLSQRISYVYKQGIQYMIFSAEMWYDYSMYISENSDRQNILYTALLANPDSPSLTFKLSECYELDNDSESVSNCFDKCTQTLLSQYKKIASDVNSGEDNNTEYEQELLYKQREKLTFVFCVYMNTMKRISGLSAARTVFGKCRKLKRILTHDVYVENAYLEFQNQNDYKTAFKVLELGLKYFQNDGVYINKYLDFLIFLNKDSQIKTLFETSVEKVQDLTQLKEIYKKMISYESKFGNLNNVYSLEKRFFERFPQENLIEVFTSRYQIQNSNLIKKLELTYMYNEEEDSYFSSGNGDGHHGSYNMSSSDRKRLMEETGNNGNFSNKKFKRDSELPTEVLDLLSVIPKRQYFNTNLLDAQKLVNFLNDQVEIPTVESTKSG
In the case of B2, the entries for the “stoichiometry N” value in the data set “SEC” and in “cross-linking” were 2 and 2 copies of Rna14 in the complex, respectively.

B3: wild-type Rna14/Rna15 complex (2:2 heterotetramer) (complex, Saccharomyces cerevisiae)
chain 1: MSSSTTPDLLYPSADKVAEPSDNIHGDELRLRERIKDNPTNILSYFQLIQYLETQESYAKVREVYEQFHNTFPFYSPAWTLQLKGELARDEFETVEKILAQCLSGKLENNDLSLWSTYLDYIRRKNNLITGGQEARAVIVKAFQLVMQKCAIFEPKSSSFWNEYLNFLEQWKPFNKWEEQQRIDMLREFYKKMLCVPFDNLEKMWNRYTQWEQEINSLTARKFIGELSAEYMKARSLYQEWLNVTNGLKRASPINLRTANKKNIPQPGTSDSNIQQLQIWLNWIKWERENKLMLSEDMLSQRISYVYKQGIQYMIFSAEMWYDYSMYISENSDRQNILYTALLANPDSPSLTFKLSECYELDNDSESVSNCFDKCTQTLLSQYKKIASDVNSGEDNNTEYEQELLYKQREKLTFVFCVYMNTMKRISGLSAARTVFGKCRKLKRILTHDVYVENAYLEFQNQNDYKTAFKVLELGLKYFQNDGVYINKYLDFLIFLNKDSQIKTLFETSVEKVQDLTQLKEIYKKMISYESKFGNLNNVYSLEKRFFERFPQENLIEVFTSRYQIQNSNLIKKLELTYMYNEEEDSYFSSGNGDGHHGSYNMSSSDRKRLMEETGNNGNFSNKKFKRDSELPTEVLDLLSVIPKRQYFNTNLLDAQKLVNFLNDQVEIPTVESTKSG
chain 2: MNRQSGVNAGVQNNPPSRVVYLGSIPYDQTEEQILDLCSNVGPVINLKMMFDPQTGRSKGYAFIEFRDLESSASAVRNLNGYQLGSRFLKCGYSSNSDISGVSQQQQQQYNNINGNNNNNGNNNNNSNGPDFQNSGNANFLSQKFPELPSGIDVNINMTTPAMMISSELAKKPKEVQLKFLQKFQEWTRAHPEDAVSLLELCPQLSFVTAELLLTNGICKVDDLIPLASRPQEEASATNNNSVNEVVDPAVLNKQKELLKQVLQLNDSQISILPDDERMAIWDLKQKALRGEFGAF
B3: binding in “AUC” was characterised by a dissociation constant (Kd) of 45 µM. In addition, in data set [6], the “stoichiometry N” value is 1 Clp1/Pcf11 sub-complex per CF IA.
